Source: article PMC2728405

Target: microtubules preformed from purified tubulin (taxol-stabilized) (UniProt Q6B856)
Assay: co-sedimentation

stoichiometry N (α-β tubulin heterodimers per Dp260): 1.4
Substance: purified recombinant Flag-tagged Dp260
